Experimental findings from patent US20020035240A1 (Amgen, published 2002) are described below.

The target of this assay is T1, rat p55CDC (rat, UniProt Q62623 1-499, phosphorylated in CHO cells (sites not given)).
T1 construct: 499 amino acids; In the assays it came from cell lysates: CHO cells transfected with the 1.8 kb rat cDNA (PMTp55s), or the endogenous protein of Rat1 cells
In words: co-immunoprecipitation with p55CDC antibody from 35S-labelled CHO cell lysates, SDS-PAGE. How it is done:
Autoradiography was performed for 1 week.
In vitro translation was performed using a nuclease treated rabbit reticulocyte lysate (Promega, Madison, WI) and [³H]-leucine (Amersham TRK683). The mRNA template was produced by using the Stratagene in vitro transcription kit and the p55CDC cDNA subcloned into the Bluescript vector as substrate. Cell lysates were prepared as described (59) after rinsing the plates twice with PBS. Cells were lysed in modified radioimmunoprecipitation assay (RIPA) buffer with additional […] (150 mM NaCl, 1.0% NP-40, 1.0% sodium deoxycholate, 0.1% SDS, 2 mM EDTA, 6 mM Na₂HPO₄, 4 mM NaH₂PO4 50 mM NaF, 200 μM Na₃VO₄, 20 μg/ml aprotinin, 1 μg/ml leupeptin, 10 μg/ml soybean trypsin inhibitor and 50 μg/ml phenylmethyl sulfonyl fluoride). All protease inhibitors were purchased from Sigma. Protein concentrations were estimated using the Bicinchoninic acid reagent (Pierce). For 250 μg lysate in a final volume of 700 μl RIPA buffer, we used 7 μl of affinity purified p55CDC antibodies (140 μg protein/ml) or 12 μl of p55CDC competed antiserum (700 μg protein/ml) which gave an equivalent level of immunoglobulin for both preparations. Immunoprecipitation of p34^cdc2 complexes was done using 10 μl of the p34^cdc2 mouse monoclonal antibody 17 (Santa Cruz Biotechnology, Santa Cruz, Calif.). […]

T1 sequence (Q62623 whole entry D77E): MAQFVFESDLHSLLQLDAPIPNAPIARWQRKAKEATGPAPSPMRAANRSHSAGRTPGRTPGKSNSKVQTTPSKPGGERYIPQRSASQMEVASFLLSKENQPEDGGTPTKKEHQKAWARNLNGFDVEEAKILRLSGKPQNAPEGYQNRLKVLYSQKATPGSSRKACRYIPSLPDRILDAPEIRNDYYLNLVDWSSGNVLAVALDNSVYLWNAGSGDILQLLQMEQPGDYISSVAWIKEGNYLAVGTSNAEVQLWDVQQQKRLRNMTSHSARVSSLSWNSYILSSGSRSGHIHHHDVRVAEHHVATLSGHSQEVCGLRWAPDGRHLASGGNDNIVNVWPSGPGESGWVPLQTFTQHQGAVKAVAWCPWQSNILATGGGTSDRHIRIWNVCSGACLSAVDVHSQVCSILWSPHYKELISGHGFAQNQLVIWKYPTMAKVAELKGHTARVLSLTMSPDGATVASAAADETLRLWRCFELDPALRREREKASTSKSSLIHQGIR

B1: p34cdc2 (CHO cells) (enzyme)
chain: not shown
In the case of B1, the binding result was “no binding”.
